B1: GRLBD(F602S) (domain or fragment, UniProt P04150 521-777, looked up)
chain: VPATLPQLTPTLVSLLEVIEPEVLYAGYDSSVPDSTWRIMTTLNMLGGRQVIAAVKWAKAIPGFRNLHLDDQMTLLQYSWMSLMAFALGWRSYRQSSANLLCFAPDLIINEQRMTLPCMYDQCKHMLYVSSELHRLQVSYEEYLCMKTLLLLSSVPKDGLKSQELFDEIRMTYIKELGKAIVKREGNSSQNWQRFYQLTKLLDSMHEVVENLLNYCFQTFLDKTMSIEFPEMLAEIITNQIPKYSNGNIKKLLFHQK
B2: MBP-GRLBD(F602S) (domain or fragment, UniProt P04150 521-777, looked up)
chain: B1 chain
B3: Human p23 (natural protein, UniProt Q15185 1-160, looked up)
chain: MQPASAKWYDRRDYVFIEFCVEDSKDVNVNFEKSKLTFSCLGGSDNFKHLNEIDLFHCIDPNDSKHKRTDRSILCCLRKGESGQSWPRLTKERAKLNWLSVDFNNWKDWEDDSDEDMSNFDRFSEMMNNMGGDEDVDLPEVDGADDDSQDSDDEKMPDLE

In test [1] the target is Hsp90(E47A) (human, UniProt P07900 1-732, E47A). Briefly: pull-down.
Test [2] concerns the target Hsp90(D93N) (human, UniProt P07900 1-732, D93N). Briefly: pull-down.
For test [3], the target named is T1, Human Hsp90α (human, UniProt P07900 1-732). Briefly: pull-down.
For test [4], the target named is Human HOP (human, UniProt P31948 1-543). Briefly: pull-down.
In test [5] the target is T1, Human Hsp90α. The test can be described thus: cryo-EM structure.
The target of test [6] is B1. Briefly: pull-down.

B1: the binding result in test [1], in test [2], in test [3] and in test [4] was “binds” each time.

With B2, the binding result in test [5] is given as “binds”.

Consider B3, for which the binding result in test [3] and in test [6] was “binds” each time.

(Values after article PMC4087167 (Cell, 2014).)
